B1: Staphylococcal nuclease domain-containing protein 1 (Homo sapiens), Q7KZF4 (parent)
chain: MASSAQSGGSSGGPAVPTVQRGIIKMVLSGCAIIVRGQPRGGPPPERQINLSNIRAGNLARRAAATQPDAKDTPDEPWAFPAREFLRKKLIGKEVCFTIENKTPQGREYGMIYLGKDTNGENIAESLVAEGLATRREGMRANNPEQNRLSECEEQAKAAKKGMWSEGNGSHTIRDLKYTIENPRHFVDSHHQKPVNAIIEHVRDGSVVRALLLPDYYLVTVMLSGIKCPTFRREADGSETPEPFAAEAKFFTESRLLQRDVQIILESCHNQNILGTILHPNGNITELLLKEGFARCVDWSIAVYTRGAEKLRAAERFAKERRLRIWRDYVAPTANLDQKDKQFVAKVMQVLNADAIVVKLNSGDYKTIHLSSIRPPRLEGENTQDKNKKLRPLYDIPYMFEAREFLRKKLIGKKVNVTVDYIRPASPATETVPAFSERTCATVTIGGINIAEALVSKGLATVIRYRQDDDQRSSHYDELLAAEARAIKNGKGLHSKKEVPIHRVADISGDTQKAKQFLPFLQRAGRSEAVVEYVFSGSRLKLYLPKETCLITFLLAGIECPRGARNLPGLVQEGEPFSEEATLFTKELVLQREVEVEVESMDKAGNFIGWLHIDGANLSVLLVEHALSKVHFTAERSSYYKSLLSAEEAAKQKKEKVWAHYEEQPVEEVMPVLEEKERSASYKPVFVTEITDDLHFYVQDVETGTQLEKLMENMRNDIASHPPVEGSYAPRRGEFCIAKFVDGEWYRARVEKVESPAKIHVFYIDYGNREVLPSTRLGTLSPAFSTRVLPAQATEYAFAFIQVPQDDDARTDAVDSVVRDIQNTQCLLNVEHLSAGCPHVTLQFADSKGDVGLGLVKEGLVMVEVRKEKQFQKVITEYLNAQESAKSARLNLWRYGDFRADDADEFGYSR

Variants of: B1
Conditions: with piwl1_human PIWIL1, Q96J94
Chain of piwl1_human PIWIL1, Q96J94 (Q96J94 whole entry): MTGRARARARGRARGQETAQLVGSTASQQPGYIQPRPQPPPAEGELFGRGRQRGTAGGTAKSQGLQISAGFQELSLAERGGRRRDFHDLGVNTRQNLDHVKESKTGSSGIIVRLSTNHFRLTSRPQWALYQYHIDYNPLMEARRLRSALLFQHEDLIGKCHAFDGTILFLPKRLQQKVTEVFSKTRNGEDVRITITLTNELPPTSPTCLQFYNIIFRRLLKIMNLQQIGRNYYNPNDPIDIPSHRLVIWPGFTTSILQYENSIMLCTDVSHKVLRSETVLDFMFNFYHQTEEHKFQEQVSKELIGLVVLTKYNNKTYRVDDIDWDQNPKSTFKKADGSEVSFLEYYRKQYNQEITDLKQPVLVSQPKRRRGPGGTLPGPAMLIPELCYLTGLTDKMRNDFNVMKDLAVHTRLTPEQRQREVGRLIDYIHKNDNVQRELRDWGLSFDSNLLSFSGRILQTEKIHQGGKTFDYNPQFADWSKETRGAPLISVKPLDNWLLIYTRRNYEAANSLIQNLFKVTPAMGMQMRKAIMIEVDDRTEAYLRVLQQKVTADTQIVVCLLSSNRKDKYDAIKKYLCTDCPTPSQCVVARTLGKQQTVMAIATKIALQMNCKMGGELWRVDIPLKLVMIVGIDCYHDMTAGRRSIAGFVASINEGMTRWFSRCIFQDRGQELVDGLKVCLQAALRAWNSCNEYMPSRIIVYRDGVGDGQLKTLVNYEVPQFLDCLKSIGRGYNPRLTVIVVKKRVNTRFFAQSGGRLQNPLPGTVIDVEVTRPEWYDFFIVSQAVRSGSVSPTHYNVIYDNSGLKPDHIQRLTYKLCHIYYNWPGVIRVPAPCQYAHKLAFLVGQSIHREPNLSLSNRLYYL

Row | Variant | effect of a mutation on the interaction
1 | Y746L | decreasing interaction strength
2 | F740L | decreasing interaction
3 | N768Q | decreasing interaction
4 | N768R | disrupting interaction
5 | Y766L | decreasing interaction
6 | Y763L | decreasing interaction

Source: IntAct's records for PubMed 20937909
